Test results reported in US9453060B2, “Protein engineered systems for delivery of molecules” (New York University, priority 2013, dated 2016).

B1: CSP: engineered supercharged coiled-coil protein, SEQ ID NO:1; COMPcc with eight solvent-exposed residues mutated to arginine (protein)
chain: MRGSHHHHHHGSGRLRPQMLRELQRTNAALRDVRELLRQQVKEITRLKNTVRRSRASGKLN
modifications: supercharged coiled-coil protein
notes: COMPcc with eight solvent-exposed residues mutated to arginine
B2: COMPcc: cartilage oligomeric matrix protein coiled-coil, parent protein, SEQ ID NO:2 (protein)
chain: MRGSHHHHHHGSGDLAPQMLRELQETNAALQDVRELLRQQVKEITFLKNTVMESDASGKLN
modifications: supercharged coiled-coil protein

Assays:
MCF7 = test: β-galactosidase gene transfection across different cell lines; type: cell-based
[1] = Curcumin binding/loading to protein
[2] = Doxorubicin binding/loading to protein
MC3T3-E1 cells = test: Cell viability by MTT assay; type: cell-based, mouse
Procedure: Cell viability studies. The cells were seeded in 96-well plate at a density of […] in αMEM with 10% FBS and incubated at 37° C. with 5% CO2 overnight. The cytotoxicity of different complexes was evaluated by 3-(4,5-dimethylthiazol-2-yl)-2,5-diphenyl […] bromide, MTT assay. Approximately 10 μL of MTT reagent from 5 mg/mL stock was added to each well and incubated for 4 hours at 37° C. with 5% CO2. After incubation, the entire medium was aspirated and 100 μL of dimethyl sulfoxide was added to each well. The change in absorbance of colored solution was observed using a microplate reader Synergy HT at 570 nm. The percent cell viability was calculated by normalizing the observed absorbance value to that of the control cells without any treatment. The data was represented as the average of quadruplicates±standard deviation.

[3] = CD spectroscopy temperature scan (melting temperature); type: physicochemical; details: CD at 222 nm
Procedure: CD spectroscopy. The secondary structure of CSP/COMPcc was analyzed using a Jasco J-815 spectrometer at 10 μM protein concentration in 50 mM Tris-HCl buffer pH 8.0. The wavelength scans were performed at 4° C. over a range of 200-250 nm with a 1 nm step size. Temperature scans were performed at 222 nm from 20° C. to 85° C. with temperature ramp of 1° C./min The observed ellipticity value (Θ) was converted into mean residue ellipticity (MRE) using the standard equation ΘMRE=Θ/(10 cpl) where c is the molar concentration of the protein, p is the path length in centimeters and l is the number of amino acids. The fraction folded was derived using equation F=(ΘA−ΘU)/(ΘN−ΘU), where, ΘA is the MRE observed at given temperature, ΘU is MRE value for completely unfolded protein and ΘN is the MRE value of completely folded protein that is considered at 25° C. The first derivative of fraction folded was used to calculate melting temperature (Tm) of protein. All data were represented as an average of three trials.

[4] = system: β-galactosidase plasmid DNA; test: Electrophoretic mobility shift assay (gel retardation) of protein binding to plasmid DNA; details: protein to DNA w/w ratio 18:1
Procedure: The β-galactosidase plasmid DNA (5.1 kb) at a concentration of 50 ng was mixed with different concentrations of CSP and COMPcc and incubated at room temperature for 30 minutes. The mixtures were run on 1% agarose gel (stained with ethidium bromide) and imaged under UV light using ImageQuant (GE healthcare).

Molecule | β-galactosidase gene transfection (in words) (MCF7) | curcumin loading [1] | doxorubicin loading [2] | cytotoxicity (in words) (MC3T3-E1 cells) | decrease in the melting temperature (Tm) in comparison to the parent COMPcc [3] | DNA shift at higher protein to DNA ratio [4]
B1 | drastic increase in transfection | 63% | 31% | not cytotoxic | 10 °C | 
B2 |  | 64% | 26% |  |  | negligible DNA shift
